From the nanobody polyreactivity screen of Harvey et al. (2022)

experiment: yeast display, Sf9 membrane polyspecificity reagent, FACS + sequencing; frameworks hold sequencing errors
In short: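 Sorting gates, low and high (top ~1%), were placed on anti-HA fluorescence to track expression and on streptavidin fluorescence to track reagent binding. A clone's polyreactivity label is taken from the gate it came out of. The reagent was 10% biotinylated, detergent-solubilized Sf9 membrane, applied for 1 hour at 4 °C to galactose-induced yeast display cells.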

Sequence	polyreactivity (PSR sort gate)
QVQLVESGGGLVQAGGSLRLSCAASGSIFYRNAMGWYRQAPGKERELVAAISWRGGSTYYADSVKGRFTISRDNAKNTVFLQMNSLKPEDTAVYYCAAAQRVNHVWYDYWGQGTQVTVSS	low polyreactivity
QVQLVESGGGLVQAGGSLRLSCAASGYTFRRYAMGWYRQAPGKERELVAGITRTGNTNYADSVKGRFTISRDNAKNTVYLQMNSLKPEDTAVYYCARDLGGYKRLYDYWGQGTQVTVSS	high polyreactivity
QVQLVDSGGGLVQAGGSLRLSCAASGNTFVTYTMGWYRQAPGKERELVADISSGGSTYYADSVKGRFTISRDNAKNTVYLQMYSLKPEDTAVYYCAVLQAVFRSYYIYHRYYWGQGTKVTVSS	high polyreactivity
QVQRVESRGGLVQAGGTLRLSCAASGSTFGVNAKGCYSQAPGKDRELVATISRGTSTNYADSVKGRFTISRDNAKNTVYLQMNSLKPEDTAVYYCAKRVFYPGAYRYYYCGQGTQVTVSS	high polyreactivity
QVQLVESGGGLVQAGGSLRISCAASGSIFDLNPMGGYRQAPGKERELVAAISSGGGTYYADSVKGRFTISRDNAKNTVYLQMNRLIPEDTAVYYCIRVTRWTSNYWGQCTQVTVSS	high polyreactivity
QVQLVESGGGLVQAGGSLRLSCAASGRIFSRNAMGWYRQAPGKERDLVAAITWRGGSTNYADSVKGRFTISRDNAKNTVYLQMNSLKPEDTAVYYCAARISRYPQDDSDYWGQGTQVTVSS	high polyreactivity
QDQLVETGVGLVQAGGSLLLSCAPSAITFRGYAMGWYRQAPGKEREYVAAITSGSSTYYADSVKGRFTISRDNAKNTVYLQMNSLKPEDTAVYYCAAERTKSFKLTRPGSMDYWGQGTQVTVSS	low polyreactivity
QVQLVESGGGLVQAGGSLRLSCAASGSTFYRYAMGWSRQAPGKERELVAAITWRGGSTYYADSVKGRFTISRDNAKNTLYLQMNSLKPEDTAVYYCAADSYYYRPYHYGYDYWGQGTQVTVSS	high polyreactivity
QVQLVESGGGLVQAGGSLRLSCAASGITFTFNAMGWYRQAPGKERELVAAITWSGGSTFYADSVKGRFTISRDNAKNTVDLQMNSLKPEDTAVYYCARDTELYVRWLDYWGQGTQVTVSS	low polyreactivity
QVQLVESGGGLVQAGGSLRLSSAASGSTFPNYAMGWYRQAPGKERELVAAITSSTGRTYYADSVKGRFTISRDTAKNSVYVPLHSLKPADTAVYYCNAEVYSDPYNDHDYWGQGTQVTVSS	low polyreactivity
QVQLVESGGGLVQAGGSLRLSCAASGRTFSRYAMGWYRQAPGKERELVAAISYSGGRTYYADSVKGRFTISRDNAKNTVYLQMNSLKPEDTAVYYCAASWPGHTVDYDYWGQGTQVTVSS	high polyreactivity
QVQLVESGGGLVQAGGSLRLSCAASGPTFTYNAMGWYRQAPGKERELVATINSVDSTYADSVKGRFTISRDNAKNTVYLQMNSMKPEDTAVYYCNAGFPLSLWLGDYWGQGTQVTVSS	low polyreactivity
QVQLQESGGGLVQAGGSLGCAASGNISTRSEMGWYRQAPGKEREFVATINSGGITNYADSVKGRFTISRDNAKNTVYLRMNSLKPEDTAVYYRAVYGYFSDPYDYWGQGTQVTVSC	low polyreactivity
QVQLVESGGGLVQAGGIHRLSCASTGRTFPAYAMGWYRQAPGKERELVAAITINGGYTYYADSVKGRFTISRDNAKNSVYLQMKSLKPEDTAVYYCAAYYDSPSHGYWGQVTQVTVSS	low polyreactivity
QVQLVESGGGLVQAGGSLRLSCAASGRTFVINAMGWYRQAPGKERELVAAISRGGSTNYADSVKGRFTISRDNAKNTVYLQMNSLKPEDTAVYYCNADYPNWWSPFDYWGQGTQVTVSS	low polyreactivity
QVQHVESGGGLVQAGGSLRLSCAASGTIFLYNAMGWYRQAPGKERELVAAIRGSDGITFYADSVKGRFTISRDNAKNTVYLQMNSLKPEDTAVYYCAKDTYRSPRHDYGYWGQGTQVTVSS	low polyreactivity
QVQLVESGGGLVQPGGSLRLSCAASGRTFRTNAMGWSRQEPGKERELVAAISTGGGITNYADSVKGRFTISRDNAKNTVYLQMNCLKPEDTAVYYCAARLAYNAIGYYYWGQGTQVTVSS	low polyreactivity
QVQLVESGGGLVQAGGSLRLSCAASGSIFLYYAMGWYRQAPGKVRALLAAISWDGGSTYYADSVKGRFTISRDNAKNTVYLQMNSLKPEDTAVYYCNKAPYYYLPHSLRYNYWGQGTQVTVSS	high polyreactivity
QVQLVESGGGLVQAGGSLRLSCAASGSTFRRNAMGWYRQAPGKERELVAAITRRGGTYYADSVKGRFTISRDNAKNTVYLQMNSLKPEDTAVYYCAADRSYYDWRYGGFDYWGQGTQVTVSS	high polyreactivity
QVQLVESGGGLVQAGGSLRLSCAASGSTFSPYAMGWYRQAPGKERELVAAITRSGSSTYYADSVKGRFTISRDNAKNTVYLQMNSLKPEDTAVYYCAADTGVTRSYRYTSWRIKYESWGQGTQVTVSS	low polyreactivity
QVQLVESVGGLVQAGGSLSLSCAASGRIFVWYTMGWYRQAPGKEREFVASINGGGNTNYADSVKGRFTISRDNAKNTVYLQMNSLKPEDTADYYCAREYFGEMDYWGHGTQVTVSS	low polyreactivity

Sequence	polyreactivity (PSR sort gate)
QVQLVESGGGLVQAGGSLRLSCAASGRTLLYYAMGWYRQAPGKERELVASISRGSSTNYADSVKGRFTISRDNAKNTVYLQMNSLKPEDTAVYWGQGTQVTVSS	low polyreactivity
QVQLVESGGCLVQSGGSLRLSCAASGIIISSYAMGWYRQAPGKERELVADIRSGGSTNYADSVKGRFTISRDNAKNTVYLQMNSLKPEDTAVSDCNADTFQWWDSAAVYVIVKYGYWGHGTQVTVSS	low polyreactivity
QVQLVESGGGLVQAGGSLRLSCAASGRIFGPYTMGWYRQAPGKEREFVAAITRRGGSTYYADSVKGRFTISRDNAKNTVYLQMNSLKPEDTAVYYCAAVGQKRSLGYSWGQGTQVTVSS	low polyreactivity
QVQLVESGGGLVQAGGSLRLSCAASGSTFRTYAMGWYRQAPGKERELVASIDSTGSTNYADSVKGRFTISRDNAKNTVYLQMNSLKPEDTAVYYCAAETYSYPPFYAYDYWGQGTQVTVSS	low polyreactivity
QVQVVESGGGLVQAGGSLRLSCAASGFIFRRYAMGWYRQAPGKEMELVAAINYSGGSTYYADSVKGRFTISRDNEKNTVYLQMKSLKPEDNAVYYCNAYGLRYYEYDYWGQGTQVTVSS	low polyreactivity
QVQLVESGGGLVQAGGSLRLSCAASGSIFAYYVMGWYRQAPGKERELVAAISRSGGRTYYADSVKGRFTISRDNAKNTVYLQMNSLKPEETAVYYCNSELYSRPPGAQDPRLRFDYWGQGTQVTVSS	high polyreactivity
QVQLVESGGGLVQAGGSLRLSCAASGFILSRYAMGWYRPAPGTERELVAAITSSGGSTYYADSVKGRFTISRDNAKNTVYLQMNSLKPEDTAVYYCAADRGRYSYNFWGQGTQVTVSS	high polyreactivity
QVQLVESGGGLVQAGGSLRLSCAASGRIIKRYAMGWYRQAPGKERELVAAISASGSSTYYADSVKGRFTISRDNAKNTVYLQMNSLKPEDTAVYYCAAWAYSPSASYDYWGQGTQVTVSS	high polyreactivity
QVQLVESGGGLVQAGGSLRLSCAASGSTLYVNAMGLYRQAPGKERELVAAISWRGDRTYYADSVKGRFTISRDNAKNNVYLQMNSLKPEDTAVYYCAKDYWWKGTTLYYNLDYWGQGTQVTVSS	high polyreactivity
QVQLVESGGGLVQAGGSLRLSCASSGFIFSTSALGWYRQAPGKERELVAAISRTGGSTYYADSDKGRFTISRDNANNTVYLQMNSLKPEDTAVYYCAAAIYSFWYEYNYWGHGTQVTVSS	high polyreactivity
QVQLVESGGGLVQAGGSLRLSCAASGFIFDYYAMGWYRQAPGKERELVAAIDDSGGSTYYADSVKGRFTISRDNAKNTVYLQMNSLKPEDTAVYYCNAGVGWHSYYSNYDYWGQGTQVTVSS	low polyreactivity
QVHLVESGGGLVQAGGSLRLSFAASGSIFYFNAMGWYRQAPGKERELVAAINYSGGSTYYADSVKGRFTISRDNAKNTVYLQRNSLKPEDTAVYYCAAVTYFGWYPYRMEYWGQGTQVTVSS	high polyreactivity
QVQLVESGGGLVQAGGSLRLSCAASGSTLRGYALGWYRQAPGKERELVAAISKNGGSTYYADSVKGRFTISRDNAKNTVYLQMNSLNPEDTAVYYCAAYKAVPHYYYWGQGTQVTVSS	high polyreactivity
QVQLVESGGGLVQAGGSLRLSCAASGRTFRPYAMGWYRQAPGKERELVAAIRGSTGSTYADSVKGRFTISRDNAKNTVYLQMNSLKPEDTAVYSCATYRYYSGLGGGYWGQGTQVTVSS	high polyreactivity
QVQLVESGGGLVQAGGSLRLSCAASGLIFYRYVMGWYRQAPGKEREFVAAISSGGSTYYADSVKGLFTISRDNAKNTVYLQMNSLKPEDTAVYYCNTLSQVFASRAPKFDYWGQGTQVTVSS	high polyreactivity
QVQLVESGGGLVQAGGSLRLSCAASGSIFEVYAMGWYRQAPVKERELVAAIDYSDGTTYYADSVKGRFTISRDNAKNTVYFQMNSLKPEDTAVYYCAADFPGQHYDYWGQGTQVTVSS	low polyreactivity
QVHIVESGGRLFQAGGSLRLSCAASGFTFAYYAMGWYRQAPGKEREMVAAISRGGTSTYYADSVKGRFTISRDNATNPVYLQMNSLKPEDTAVFYCNAVKVGYSLYDFWGQGTQVTVSS	high polyreactivity
QVQLVESGGGLVQAGGSLRLSCAASGRIFPTNAMGWYRQAPGKERELVAAIPVSGGSTYYADSVKGRFTISRDNAKNTVYLQMNSLKPEDTAVYYCAADSSTYRFDYWGQGTQVTVSS	low polyreactivity
QVQHVKSGGGLVQAGGSLRLSCAASGSIFGYNTMGWYRQAPGKERELVATITYRGGSTYYADSVKGRFTISRDNAKNTVYLQMNSLKPEDTAVYYCARRVTRYPYTTWDSAGDYWGQGTQVTVSS	high polyreactivity
QVQLVESGGGLVQAGGSLRLSCAASGRTFTTYAMGWYRQAPGKERELVASISGSGGSTYFADSVKGRFTISRDNAKNTVYLQMNSLKPEDTAVYYCATADYYHGGYYYPYDDYWGQGTQVTVSS	low polyreactivity
